Source: patent publication US20140363428A1 (Chugai, published 2014)
Substitutions are numbered along the chain they refer to. Names may count otherwise.

Legend:
[1] = target: T1, soluble human FcRn (heterodimer of FcRn alpha chain and beta2-microglobulin) (human, UniProt P55899 24-297; P61769 21-119); test: statement in Example 3
T1 construct: Signal regions are part of the expressed constructs; also called hFcRn

[2] = target: T1, soluble human FcRn (heterodimer of FcRn …); test: SPR, hFcRn at pH 7.0
human IgA [3] = target: T2, human IgA (human); test: SPR Biacore T200, 37 C; pH 5.8, 3 microM Ca; steady state affinity
T2 construct: Recombinant antigen; variable region derived from an anti-human IL-6 receptor antibody; also called hIgA
Experimental: (§1) The antibodies isolated as described in 8-2 were assessed for their hIgA-binding activity (dissociation constant KD (M)) using Biacore T200 (GE Healthcare). Running buffers used in the measurement were 0.05% tween20/20 mmol/L ACES/150 mmol/L NaCl (pH 7.4 or 5.8) containing 3 microM or 1.2 mM CaCl₂.
(§2) The antibody was allowed to bind to Sensor chip CM5 (GE Healthcare) immobilized with a suitable amount of recombinant Protein A/G (Thermo Scientific) by the amino coupling method. Then, an appropriate concentration of hIgA (described in 8-1) was injected as an analyte to allow interaction with the antibody on the sensor chip. The measurement was carried out at 37 degrees C. After the measurement, 10 mmol/L glycine-HCl (pH 1.5) was injected to regenerate the sensor chip. The dissociation constant KD (M) was calculated from the measurement result by curve fitting analysis and equilibrium parameter analysis using Biacore T200 Evaluation Software (GE Healthcare).

human IgA [4] = target: T2, human IgA; test: SPR Biacore T200, 37 C; pH 5.8, 1.2 mM Ca; steady state affinity
Experimental: as §1, §2

human IgA [5] = target: T2, human IgA; test: SPR Biacore T200, 37 C; pH 7.4, 3 microM Ca; steady state affinity
Experimental: as §1, §2

human IgA [6] = target: T2, human IgA; test: SPR Biacore T200, 37 C, Ab on Protein A/G, hIgA analyte; pH 7.4, 1.2 mM Ca; 1:1 binding model; pH 7.4, 1.2 mM Ca; 1:1 binding model
Experimental: as §1, §2

human IgA [7] = target: T2, human IgA; test: SPR Biacore T200, 37 C, Ab on Protein A/G, hIgA analyte; pH 7.4, 1.2 mM Ca; 1:1 binding model
Experimental: as §1, §2

T2 sequence (VH, as listed by the source): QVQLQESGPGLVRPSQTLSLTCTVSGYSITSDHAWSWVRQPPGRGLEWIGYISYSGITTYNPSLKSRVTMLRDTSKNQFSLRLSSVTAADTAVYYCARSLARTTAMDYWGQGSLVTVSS
T1 sequence (P55899 24-297 limits assumed, chain 1 of 2): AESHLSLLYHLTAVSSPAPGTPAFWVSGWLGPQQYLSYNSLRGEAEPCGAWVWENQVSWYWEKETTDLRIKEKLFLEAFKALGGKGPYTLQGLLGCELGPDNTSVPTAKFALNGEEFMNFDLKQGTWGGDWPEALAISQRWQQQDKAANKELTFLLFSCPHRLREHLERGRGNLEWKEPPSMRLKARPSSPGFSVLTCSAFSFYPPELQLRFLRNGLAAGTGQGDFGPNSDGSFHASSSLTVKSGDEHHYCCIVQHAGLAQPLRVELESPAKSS
T1 sequence (P61769 21-119 limits assumed, chain 2 of 2): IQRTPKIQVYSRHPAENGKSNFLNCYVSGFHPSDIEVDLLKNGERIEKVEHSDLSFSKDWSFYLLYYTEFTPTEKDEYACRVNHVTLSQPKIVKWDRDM

B1: Fv-4-F946 (antibody, human IgG1, kappa)
heavy: QVQLQESGPGLVKPSETLSLTCAVSGHSISHDHAWSWVRQPPGEGLEWIGFISYSGITNYNPSLQGRVTISRDNSKNTLYLQMNSLRAEDTAVYYCARSLARTTAMDYWGEGTLVTVSSASTKGPSVFPLAPSSKSTSGGTAALGCLVKDYFPEPVTVSWNSGALTSGVHTFPAVLQSSGLYSLSSVVTVPSSSLGTQTYICNVNHKPSNTKVDKKVEPKSCDKTHTCPPCPAPELLGGPSVFLFPPKPKDVLYISRTPEVTCVVVDVSHEDPEVKFNWYVDGVEVHNAKTKPREEQYNSTYRVVSVLQVLHADWLNGKEYKCKVSNKALPAPIEKTISKAKGQPREPQVYTLPPSRDELTKNQVSLTCLVKGFYPSDIAVEWESNGQPENNYKTTPPVLDSDGSFFLYSKLTVDKSRWQQGNVFSCSVMHEALHYHVTQKSLSLSP
light: DIQMTQSPSSLSASVGDSVTITCQASTDISSHLNWYQQKPGKAPELLIYYGSHLLSGVPSRFSGSGSGTDFTFTISSLEAEDAATYYCGQGNRLPYTFGQGTKVEIERTVAAPSVFIFPPSDEQLKSGTASVVCLLNNFYPREAKVQWKVDNALQSGNSQESVTEQDSKDSTYSLSSTLTLSKADYEKHKVYACEVTHQGLSSPVTKSFNRGEC
notes: VH3-F946 and VL3-CK
Does B1 bind [1]?
Result: binds

B2: Fv-4-F1080 (antibody, human IgG1, kappa, name in EU numbering)
heavy: B1 heavy with V252T, Q309T, A313Q, S426N, V438Y
light: B1 light
modifications: additional N-glycosylation found by SDS-PAGE (S424N)
Does B2 bind [2]?
Result: binds

B3: GA2-IgG1 (antibody, V domains shown)
VH: QVQLVQSGAEVKKPGSSVKVSCKASGGTFSSYAISWVRQAPGQGLEWMGGIIPIFGTANYAQKFQGRVTITADESTSTAYMELSSLRSEDTAVYYCARPRWETAISSDAFDIWGQGTMVTVSS
VL: DIQMTQSPSSLSASVGDRVTITCRASQSISDDLNWYQQKPGKAPKLLIYEASNLQSGVPSRFSGSGSGTDFTLTISSLQPEDFATYYCQQHSSSPLTFGQGTKVEIKR
Which Kd (human IgA [3]) does the source give for B3 here?
The Kd was 5 µM.

And the Kd (human IgA [4])?
The Kd was 4 µM.

What about the Kd (human IgA [5]) of the same binder?
Its Kd is 6.7 µM.

What about the kon (human IgA [6]) of the same binder?
Its kon is 400000 M⁻¹ s⁻¹.

And the Kd (human IgA [7])?
The Kd was 0.039 µM.
